The source of these data is a protein production outcome set (Wang et al. 2014).

The nature of the data set: label from the status in PepcDB records.
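Also: failed if final PepcDB status was selected cloned or expressed and not failed if soluble or beyond.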

As for “MEKFTLSRIINIIMFLYILSIYLFTFRDGLNSISNFLALTFIAAIWSNVLLTRKKIVFNKFLFIYFLFILVCFVSVFFAINQSIAVSKIKTIILIYFLMISLVNYIDTFEKLRSFLLSFVYSGFITGVYILASSDFSQVTRYGSELGNVNSIGMIIGISSIFCFYFIIEEKKYLLYTPIMLINIFVVFLTGSRKALLFVVLTIIAILLIQQKAGIKGKIKALIGILVTLVISLYVIFNVELLYTIIGVRMEHLFSYILGKGANEGSINIRANMIDMGLDWFQERPITGYGIDNFRSLYGIEAIGGEFTYSHNNLVELLVGIGIIGTFLFYLTHFIVLKGLYKESKKNQKSALCYSFIAIIGIYIILSVGLIYYYDKHISMILAIGSIIYKIGKPSGEELTQKTLE”, the protein production entry is given as “failed”. In the case of “MEKKPWEEDISIEEFKKSLNKDKITNLIIKRRWNKGKSTYHLSFNGDFEVVTKKPSTKYVTHKQLDQKLKEFKQDLMVELHDTFATKADLRDSEARINQKLEALVQVVLLHGEQINKLTQIVEKQGEQIRELQVEQKAQRQEFNARMDRLENLLVESIESTNKRFDSIEGRLDSMDSRLDSMENRLDSIEGRLDSVEGRLDSVEGRLDSMENRLDSMETRLDKIDPPK”, the protein production result is on record as “failed”. The same measure for “MEKKVGTDRVKRGMAQMQKGGVIMDVVNAEQAKIAEEAGAVAVMALERVPSDIRAAGGVARMADPRIVEEVMNAVSIPVMAKARIGHITEARVLEAMGVDYIDESEVLTPADDEFHLLKSDFTVPFVCGCRDIGEALRRIGEGAAMLRTKGEPGTGNIVEAVRHMRQVNGQIRQIASMTDDELMVAAKNFGAPYELVKEIKTLGKLPVVNFAAGGVATPADAALMMELGADGVFVGSGIFKSDNPAKFASAIVQATTYYTDYELIGKLSKELGSPMKGIEMSRLNPEDRMQDRSF”: “failed”; for “MEKLNFGIPEWAFEFHGHKCPYMPMGYRAGSYALKIAGLEKEKDHRTYLLSEMSPEDMNGCFNDGAQAATGCTYGKGLFSLLGYGKLALILYRPGRKAIRVHVRNSFMDELSTRASDFFRYRKQGYEPSEIPAGAIDPVLEWISSLEDEEIFEYREIDGFTFEPVKKNGAKVRCDVCGEYTYEADAKLLNGKPVCKPDYYGKK”: “not failed”. Next, “MEKNVSQVTAQEETALKARGYNEDLLPSSPKQRTMGARNFFTLWMGSIHNIPNYAAVGGFIFLGLSPLQVMLAVVLSSFIVATFMNLNGVAGSKYGIPFAMHLQSTYGSLGAKLPGFLRGCVAAIAWFGLQTFTGSLALLIILGKFWPNFLEIGGSFQFFGLRLPELMAFTLFWLLNVAIGFGGSKILNRFTAILSPLIYVVIIGLTIWAIRAGGGLTPILSYQVSGAIRSVNPLVAYLIIFNSVVAVWSAPGASVADFTKNARSTRAQVVGQTTGLVVGYGIFAFSSVVILLGGSLYFGIQEWNILNIIDRLDNVAVVVLAMSVFLLTTISTNATGNIIPAGYQLAALFPKKMTYKKGVMIASVISFLIMPWKLMENADSIFIFLNAIGAVLGPVAGVMIANYYFVQKQQIDLNALYVDKHKKEEANPFYGLNKPAYVATILALVLSLSGQFIPQVKIIADISWFVGFATGFVLYLVLKKWTWDSKKVKETAYQEGK”: “failed”; “MEKPRSIEETPSSEPMEEEEDDDLELFGGYDSFRSYNSSVGSESSSYLEESSEAENEDREAGELPTSPLHLLSPGTPRSLDGSGSEPAVCEMCGIVGTREAFFSKTKRFCSVSCSRSYSSNSKKASILARLQGKPPTKKAKVLHKAAWSAKIGAFLHSQGTGQLADGTPTGQDALVLGFDWGKFLKDHSYKAAPVSCFKHVPLYDQWEDVMKGMKVEVLNSDAVLPSRVYWIASVIQTAGYRVLLRYEGFENDASHDFWCNLGTVDVHPIGWCAINSKILVPPRTIHAKFTDWKGYLMKRLVGSRTLPVDFHIKMVESMKYPFRQGMRLEVVDKSQVSRTRMAVVDTVIGGRLRLLYEDGDSDDDFWCHMWSPLIHPVGWSRRVGHGIKMSERRSDMAHHPTFRKIYCDAVPYLFKKVRAVYTEGGWFEEGMKLEAIDPLNLGNICVATVCKVLLDGYLMICVDGGPSTDGLDWFCYHASSHAIFPATFCQKNDIELTPPKGYEAQTFNWENYLEKTKSKAAPSRLFNMDCPNHGFKVGMKLEAVDLMEPRLICVATVKRVVHRLLSIHFDGWDSEYDQWVDCESPDIYPVGWCELTGYQLQPPVAAEPATPLKAKEATKKKKKQFGKKRKRIPPTKTRPLRQGSKKPLLEDDPQGARKISSEPVPGEIIAVRVKEEHLDVASPDKASSPELPVSVENIKQETDD”: “failed”; “MEKQEEEDVKRRQRQKAATSLGFLHWEELKNHGDLSKVALNIALTTLVDDASTGFCIMNLVNLIVLRESSQGYLLTYEGKLASLASATYVKAFISLWVLEDAERHAWSFRTFSLTFPLDDPILDTFLELTGVTEAGEFVYAPTTLQSPFHALYFDPQRNSFRRVIYEGLADDEFRRRNRLGYERHHILPNHIESLISL”: “failed”. Next, “MEKTLETVPLERKKREKEQFRKLFIGGLSFETTEESLRNYYEQWGKLTDCVVMRDPASKRSRGFGFVTFSSMAEVDAAMAARPHSIDGRVVEPKRAVAREESG”: “not failed”. On to “MEKVKKIVLIGASGFVGSALLNEALNRGFEVTAVVRHPEKIKIENEHLKVKKADVSSLDEVCEVCKGADAVISAFNPGWNNPDIYDETIKVYLTIIDGVKKAGVNRFLMVGGAGSLFIAPGLRLMDSGEVPENILPGVKALGEFYLNFLMKEKEIDWVFFSPAADMRPGVRTGRYRLGKDDMIVDIVGNSHISVEDYAAAMIDELEHPKHHQERFTIGYLEHHHHHH”, for which the protein production entry is given as “failed”. The same measure for “MEKYLRSGTMFVVLAFILWGLTPLYYQYLSGGNLAQILIYRVFWSIPLLLAVRLLFRQRTRFHDAWKDKKSFFFCMIAGLLMIVSWSSFIYALTHHLVLDASLGYFINPLFVIALGCIFLKEKLSLFQAIAVFSGVCGLTFQIIMLRHFPALALTMGLSFALYGLARKFIHYDVMTSITIETLWALPVSLLIFLFSDSGPIISANTPFFLYVMTAPVTIIPLVLFAIALNHTSLIVTGLAQYIEPSLQFLLAIMIFGEHINYAELLCFCAVWFGLFLCISENLYSHYLRARLKPVFGRVQRFFR”: “failed”. The same measure for “MELDAFNKGAIPLINHPDCSALGYQVIQELGRNQEEGRITYLAHHHQSKQQVVIKEFSFAHTYTDWCDFTAYESEAKILQKLNHPRIPRYLDSFATQTGFYLVQEYKHALPLSSKRSFQPEEIKQIAVSVLEILVYLQQRIDPIIHRDIKPENILVDEQLNAYLVDFGLARVQDTKIALTSLLTGTPGFIPPEEQLGYSLSLASDLYSVGATLICLLANIRSVDIGKLIDSKGYFDFQKLDSQIDLRFRSWLMGMVEPKWQYRYTNAADALAALQPIQVTGNATAMEILATVIKLKYQTTVLGLAIIGVLAVAGATLILSQQGGAAQQLQEARK”: “failed”. The same measure for “MELEQKLNLLNDLIVREIVNPLPPPYKVGVDLGTADIVLVVTDQEGIPVAGALKWASVVKDGLVVDYIGAIQIVRELKAKVERLLGSELFQAATAIPPGTVGRNAEACGHVVAGAGLELVTLVDEPVAAARALGINDGIVVDIGGGTTGIAVIEKGKITATFDEPTGGTHLSLVLAGSYKIPFEEAETIKKDFSRHREIMPVVRPVIEKMALIVKEVIKNYDQTLPVYVVGGTAYLTGFSEEFSRFLGKEVQVPIHPLLVTPLGIALFG”: “not failed”; for “MELGFPLLWLSLVLPVLASLTIVALPPRTAYWLVAITLAIPGIVSSYYAFQGVLSEGIIDPVSLNLSNIGIGVVALAVDGFSYPFVLGVSVVTALVAVYGYKYMEVRLREMEGEGERAPGHAAYLILYSIFSSTMLGIAYSLNFLLFIIFLELSLLSSFLLIAFYGYGDRRRIALLYFVWTHIAGALALLGGLYYVIKTGTFDVATVEGGRIVYFSSPADRSVYAAIAGVSLLLGMLVKMAVFGVHMWLPYAHAEAPTPISALLSPNLIGLGGYGIARFAAAFYPWLLEDLKPLLVGLAFVTIVYGGLVALSQLDFKRLLAYSSISQMGYMLLALSTLHPLGFAAASLIFLGHAVGKAVLFMTAGVFITEAHGLRNIARMGGLARLYPLTAAAALIGFLHLAGIPPAFGFWGELYLTLSVLNYPGYSDAVSLGLLAIILIVAFTVTAAYSFITMRRIFFGRPRADMDAREEVDGFKSTVVLLAVLGVALFLLAGPMVTDLAASSLAMVEAFLS”: “failed”. On to “MELGSVATFSLYPDLYARFRPSYPEELYDWLLPLCPGRQRAWDCATGSGQTAVRLGESFSRVDATDISSSQLSAAEPHTQVYYRECPAEVTPFDDDCFDLICVSQALHWFHLPSFWPEMQRVLKPGGIFAAWGYHHCVVSPEVDRACSVLWSIIEPFWSSRCQLLWDDFRGSGCPLPLLKAPSFTISSDWALDHFLGFLNTTSASKLCKQALGESILDDACQRITRAWGPRNQVRRVDLPLHLMVARKDDAGGYAG”, for which the protein production result was “failed”. The same measure for “MELGTPLLLTIAAAGIALLLVLIIRFKIQAFVALLAVSILVAVAAQIPLKDIFTVVTTGVGSTMGKVALLIALGAILGRMIEVSGGVQSLATHFTEKLGAKRVAIALTAVGFLVAIPVFFEVGVIVLVPIVYAFAKIANVHPIKFGLPMAGIMLSIHVAVPPHPGIVAGAGVFGADIGLITLISLIICIPLGFLSYWVASIMNRKDYELLPGVKQQVDEFGSDSLVHVGHDGPGARAIAPPRPGLIMFLIAAPIVQILLGTVGTLTLAKDNYWYGVAAFIGNPFFALLVAVALSFFLLAVRRNWSLKETGEIFEGALPPIASILMVVAAGGVFGEVLRASGIGAALSHTLDSLGLPVIVLGFIISLALRAAQGSATVAIVTTTGLLTSAVMEGGYTPAQIAVIVIAIGFGSLGLSHVTDAGFWTVIRYYGLTVSDGLKTWTVLTTILGLAGFALTYVAWILVGGLGH”: “failed”.

On to “MELKDIMHILEDMKVGVFATLDEYGNPHARHAHITAANEEGIFFMTSPETHFYDQLMGDQRVAMTAISEEGYLIQVVRVEGTARPVENDYLKTVFADNPYYQHIYKDESSDTMQVFQIYAGHGFYHSLTQGHKYIFSIGQGEHSEVRAL”, for which the protein production result is “not failed”. In the case of “MELKDYYAILGVQPTDDLKTIKTAYRRLARKYHPDVSKENDAEAKFKDLAEAWEVLKDEQRRAEYDQLWQHRNDPGFGRQRQTHEQSYSQQDFDDIFSSMFGQQAHQRRRQHAARGHDLEIEVAVFLEETLAEQTRTISYNLPVYNVFGMIESETPKTLNVKIPAGVVDGQRIRLKGQGTPGENGGPNGDLWLVIHIAPHPLFDIVGHNLEIVLPLAPWEAALGAKVTVPTLKESILLTVPPGSQAGQRLRIKGKGLVSKTHTGDLFAVIKIVMPTKPDEKARELWQQLAAAEASFDPRKTWGKA”, the protein production result is reported as “not failed”. Turning to “MELKHGYYHLIAILTVAIWGLTFISTKVLINHGLTPQEIFFYRFLIAYLGIWVISPKRLFTNNWQDELWLVAGGIFGGSLYFFTENTALGITQASNVSFIICTAPLLTTILSLLFYKSEKASKGLIYGSLLALMGVGLIVFNGSFVLKISPIGDLLTLLAALSWAFYSLIIKKMAGRYPTIFITRKIFFYGVLTILPAFLLHPLHPDTAVLLQPAVLFNLLFLAVLASLICYVLWNVVLKQLGTVRASNYIYLNPLVTMIASFLILDEKITLVALGGAACIVCGVYWAEKK”, the protein production entry is given as “failed”. With “MELKNKKLSLWEAVSMAVGVMIGASIFSIFGVGAKIAGRNLPETFILSGIYALLVAYSYTKLGAKIVSNAGPIAFIHKAIGDNIITGALSILLWMSYVISIALFAKGFAGYFLPLINAPINTFNIAITEIGIVAFFTALNFFGSKAVGRAEFFIVLVKLLILGLFIFAGLITIHPSYVIPDLAPSAVSGMIFASAIFFLSYMGFGVITNASEHIENPKKNVPRAIFISILIVMFVYVGVAISAIGNLPIDELIKASENALAVAAKPFLGNLGFLLISIGALFSISSAMNATIYGGANVAYSLAKDGELPEFFERKVWFKSTEGLYITSALGVLFALLFNMEGVASITSAVFMVIYLFVILSHYILIDEVGGRKEIVIFSFIVVLGVFLLLLYYQWITNRFVFYGIIATFIGVLIFEIIYRKVTKRTFSNNMYVKS”, the protein production result was “not failed”.
